B1: Hairpin Ribozyme (parent)
chain: GUCCUCUUUCACGUGCGCGUGAAAGAGAGAAGUGAACCAGAGAAACACACGUUGUGGUAUAUUACCUGGUA

Variants of B1 are the subject of the data set. The data set can be described thus: self-cleavage, relative activity (ratio to wild type); higher = more cleavage; co-transcriptional.
In the case of G40A G51U, the self-cleavage worked out at 0.404.
Regarding A39C G54C, the self-cleavage was determined as 0.213.
Regarding C38A C46A, the self-cleavage was 0.0508.
For A41G A44U the value was 0.185; for C38G U62G, 0.0875.
For C38U A47G the value was 0.163; for C38U A47C, 0.276.
Turning to G40A C65G, the self-cleavage turned out to be 0.0639.
On to A39C U67G, for which the self-cleavage came to 0.548.
For A41G U62A the value was 0.0775; for A41G U62C, 0.198.
With C38U A59C, the self-cleavage is 0.228.
For the variant C38A U55G, the self-cleavage turned out to be 0.183.
Next, C38A U55A: 0.133; A41G U53G: 1.05; G40A U53C: 0.46.
With G40A U53G, the self-cleavage was determined as 0.169.
As to A39G C65G, the self-cleavage was 0.152.
With C38A U58G, the self-cleavage was 0.204.
Next, A41G: 0.913.
For A41U the value was 1.29; for A41C, 1.21.
On to C38G A41C, for which the self-cleavage amounted to 0.264.
For C38G A41G the value was 0.618.
Next, A39C U55C: 0.188; C38A U63C: 0.0636.
For G40A C66A the value was 0.322.
In the case of C38G U60A, the self-cleavage was 0.116.
Next, G40C A64G: 0.129; G40C A64C: 0.126.
Next, A39C U62A: 0.159; A39C U62G: 0.108.
Next, G40U A44C: 0.105; G40U A44U: 0.142.
G40U G69U: the self-cleavage amounted to 0.0875.
Turning to A41U A61C, the self-cleavage came to 0.39.
For C38G U55C the value was 0.0193; for C38G C66G, 0.0755.
For C38G C66U the value was 0.21.
For C38G C66A the value was 0.151.
Regarding A39U A64G, the self-cleavage turned out to be 0.116.
Next, A39C G69A: 0.168; A39U G68U: 0.225.
In the case of C38U U70G, the self-cleavage was found to be 0.39.
For A41G U52G the value was 1.15.
As for G40C A61C, the self-cleavage turned out to be 0.107.
For A39U U67C the value was 0.286; for A39U U67A, 0.73; for A41U A43U, 0.187.
For A39G A45C the value was 0.122; for C38U U52C, 0.598.
On to A41C U55C, for which the self-cleavage amounted to 0.484.
Next, G40U A64U: 0.1.
As for G40U A64C, the self-cleavage was 0.175.
Next, A41C A64G: 0.173; A39G G51C: 0.232; A39G G51U: 0.36.
For G40C C65U the value was 0.129; for C38A G69A, 0.146; for A39C A71C, 0.88.
Next, A39G A49U: 0.0948; C38A U70A: 0.165.
Take A39C U58C: the self-cleavage was 0.568.
For G40U C66U the value was 0.223; for A41G C65U, 1.05.
For the variant G40A A45C, the self-cleavage turned out to be 0.0818.
For A39C U53C the value was 0.42; for C38G G51A, 0.271; for C38G G51U, 0.312.
On to G40A A64G, for which the self-cleavage turned out to be 0.119.
Next, A41C A61G: 0.304; C38G A64G: 0.118; C38G A64C: 0.0814.
Take G40A G69C: the self-cleavage amounted to 0.11.
In the case of G40C A41C, the self-cleavage was 0.108.
On to G40C U60A, for which the self-cleavage is 0.0252.
Next, G40C U60G: 0.102.
Take C38G G56A: the self-cleavage came out at 0.134.
With C38G G56U, the self-cleavage worked out at 0.0935.
For C38U G42C the value was 0.177; for C38U G42U, 0.2; for A39U A47U, 0.164.
For C38U G40C the value was 0.118.
In the case of A39U U70C, the self-cleavage was 0.247.
C38U A71G: the self-cleavage was found to be 0.681.
Next, A41C G42A: 0.805.
Regarding C38A G51A, the self-cleavage was 0.349.
On to G40U C65A, for which the self-cleavage worked out at 0.158.
Next, G40A: 0.329; G40U: 0.175.
For G40C the value was 0.128; for G40C G56C, 0.122; for G40C G57U, 0.106.
Take G40C G57C: the self-cleavage is 0.134.
Regarding G40U A47C, the self-cleavage was 0.118.
Regarding G40U A47G, the self-cleavage was found to be 0.18.
Next, A41G C48G: 0.121; A41G C48U: 0.162.
Next, A41G A61U: 0.195.
Consider A41G A61C, for which the self-cleavage is 0.299.
For G40A A41U the value was 0.608.
On to G40A A41G, for which the self-cleavage worked out at 0.263.
Next, C38G A47C: 0.128.
Next, C38G A47G: 0.116; A39U U52G: 0.252.
For A39U U52A the value was 0.406.
G40U U53A: the self-cleavage was found to be 0.121.
For A39G U53A the value was 0.295.
Next, C38U U63G: 0.186.
C38U U63C: the self-cleavage amounted to 0.128.
As for A39G C48G, the self-cleavage is 0.0932.
For A39C U70G the value was 0.232.
With A39C U70A, the self-cleavage stood at 0.188.
For A39C A47U the value was 0.151.
For G40C A43U the value was 0.128; for G40C A43C, 0.168; for A41C G54A, 0.829.
Regarding A41C U67C, the self-cleavage was 0.249.
Take A41G G57A: the self-cleavage turned out to be 0.184.
For A41G G57U, the self-cleavage came to 0.184.
Next, A41U A45G: 0.218; G40A A44C: 0.161; G40A A44G: 0.144.
For A41C G56C the value was 0.237; for A41G G51C, 0.677; for A39G U52C, 0.26.
As for A39G U52G, the self-cleavage is 0.3.
Next, A41G G54C: 0.672; A41G G54A: 0.481.
Next, A39C G57U: 0.16; A39C G57C: 0.127; A41G A47G: 0.0362.
For G40A A61U, the self-cleavage is 0.177.
Next, G40C C46U: 0.116; G40C G54C: 0.114.
For the variant C38G C65G, the self-cleavage was determined as 0.0624.
Take G40U U58A: the self-cleavage was determined as 0.155.
Next, A39C G51U: 0.64.
On to C38G U53A, for which the self-cleavage was found to be 0.185.
For G40U C48U, the self-cleavage amounted to 0.181.
Next, G40U C48G: 0.189; C38U C50A: 0.207; A39G A41C: 0.267.
For G40U U63A the value was 0.138; for A39U G54U, 0.163.
For A41G G69U the value was 0.42.
With G40A U63G, the self-cleavage was determined as 0.126.
A41C G57C: the self-cleavage is 0.226.
For A39U A71U the value was 0.19; for A39C G42A, 0.191; for A39C G42C, 0.169.
For A39G C50A the value was 0.196; for A39G C50U, 0.148; for C38G A39U, 0.209.
Consider A41G G68U, for which the self-cleavage is 0.364.
Take G40U U70C: the self-cleavage worked out at 0.12.
Next, G40C C48A: 0.128; G40C C48U: 0.135.
Regarding C38U G56C, the self-cleavage came to 0.171.
Next, A39G U55A: 0.0918; C38G U70A: 0.144.
For C38G A45U the value was 0.156; for A41G C50A, 0.255; for A41C U52G, 0.654.
For C38U U55G the value was 0.137; for C38U G69C, 0.158.
As to C38U C65G, the self-cleavage came to 0.164.

The record behind these values is the RNAGym collection of RNA variant scans (doi:10.7554/elife.80360).
